From patent US20240262917

Experiments:
[1] = molecular target: ALK LF655del cleavage site mutant
[2] = molecular target: Full-length human anaplastic lymphoma kinase (ALK) receptor, wild type
Full-length human anaplastic lymphoma kinase (ALK) receptor, wild type, sequence (chain, as listed by the source): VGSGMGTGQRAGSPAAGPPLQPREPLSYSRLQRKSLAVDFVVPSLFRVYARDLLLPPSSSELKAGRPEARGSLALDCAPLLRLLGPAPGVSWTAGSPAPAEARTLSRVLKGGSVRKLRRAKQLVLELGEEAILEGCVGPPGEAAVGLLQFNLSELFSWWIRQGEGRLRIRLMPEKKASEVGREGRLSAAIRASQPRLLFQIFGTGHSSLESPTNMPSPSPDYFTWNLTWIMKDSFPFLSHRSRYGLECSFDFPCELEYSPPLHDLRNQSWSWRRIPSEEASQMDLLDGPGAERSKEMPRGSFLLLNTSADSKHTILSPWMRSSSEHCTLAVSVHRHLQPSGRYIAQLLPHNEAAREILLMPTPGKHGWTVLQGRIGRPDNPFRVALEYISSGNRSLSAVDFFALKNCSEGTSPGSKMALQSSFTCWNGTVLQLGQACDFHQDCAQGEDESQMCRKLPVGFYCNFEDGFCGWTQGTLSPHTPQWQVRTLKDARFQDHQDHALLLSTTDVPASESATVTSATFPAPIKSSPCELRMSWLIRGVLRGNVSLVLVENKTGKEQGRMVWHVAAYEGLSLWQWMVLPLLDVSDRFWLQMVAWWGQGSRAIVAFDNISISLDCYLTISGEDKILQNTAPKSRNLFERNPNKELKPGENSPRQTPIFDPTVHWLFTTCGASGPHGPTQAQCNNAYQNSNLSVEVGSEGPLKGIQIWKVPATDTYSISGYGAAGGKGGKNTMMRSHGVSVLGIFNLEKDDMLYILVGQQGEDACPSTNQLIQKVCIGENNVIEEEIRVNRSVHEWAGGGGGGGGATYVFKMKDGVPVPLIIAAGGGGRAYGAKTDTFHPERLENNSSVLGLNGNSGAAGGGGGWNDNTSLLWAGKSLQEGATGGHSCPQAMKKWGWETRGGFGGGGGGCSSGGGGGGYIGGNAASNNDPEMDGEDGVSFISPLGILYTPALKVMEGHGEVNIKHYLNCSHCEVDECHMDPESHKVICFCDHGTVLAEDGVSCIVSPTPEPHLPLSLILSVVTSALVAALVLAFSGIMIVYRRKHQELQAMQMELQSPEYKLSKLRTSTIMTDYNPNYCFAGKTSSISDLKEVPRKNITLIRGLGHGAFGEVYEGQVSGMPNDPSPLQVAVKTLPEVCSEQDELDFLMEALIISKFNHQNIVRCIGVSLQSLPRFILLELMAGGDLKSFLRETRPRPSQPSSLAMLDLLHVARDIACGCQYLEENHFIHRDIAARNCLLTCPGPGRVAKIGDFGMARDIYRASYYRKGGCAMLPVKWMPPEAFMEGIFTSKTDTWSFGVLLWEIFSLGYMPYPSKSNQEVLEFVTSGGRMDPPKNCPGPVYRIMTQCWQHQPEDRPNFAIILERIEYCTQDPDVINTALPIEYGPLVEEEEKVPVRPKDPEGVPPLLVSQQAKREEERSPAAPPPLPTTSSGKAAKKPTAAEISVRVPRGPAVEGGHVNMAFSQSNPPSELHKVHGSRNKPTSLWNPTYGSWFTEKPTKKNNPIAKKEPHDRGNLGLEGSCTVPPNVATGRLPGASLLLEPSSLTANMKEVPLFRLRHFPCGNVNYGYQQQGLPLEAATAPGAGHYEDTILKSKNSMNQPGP

ALK LF655del cleavage site mutant, sequence (chain, as listed by the source mutant): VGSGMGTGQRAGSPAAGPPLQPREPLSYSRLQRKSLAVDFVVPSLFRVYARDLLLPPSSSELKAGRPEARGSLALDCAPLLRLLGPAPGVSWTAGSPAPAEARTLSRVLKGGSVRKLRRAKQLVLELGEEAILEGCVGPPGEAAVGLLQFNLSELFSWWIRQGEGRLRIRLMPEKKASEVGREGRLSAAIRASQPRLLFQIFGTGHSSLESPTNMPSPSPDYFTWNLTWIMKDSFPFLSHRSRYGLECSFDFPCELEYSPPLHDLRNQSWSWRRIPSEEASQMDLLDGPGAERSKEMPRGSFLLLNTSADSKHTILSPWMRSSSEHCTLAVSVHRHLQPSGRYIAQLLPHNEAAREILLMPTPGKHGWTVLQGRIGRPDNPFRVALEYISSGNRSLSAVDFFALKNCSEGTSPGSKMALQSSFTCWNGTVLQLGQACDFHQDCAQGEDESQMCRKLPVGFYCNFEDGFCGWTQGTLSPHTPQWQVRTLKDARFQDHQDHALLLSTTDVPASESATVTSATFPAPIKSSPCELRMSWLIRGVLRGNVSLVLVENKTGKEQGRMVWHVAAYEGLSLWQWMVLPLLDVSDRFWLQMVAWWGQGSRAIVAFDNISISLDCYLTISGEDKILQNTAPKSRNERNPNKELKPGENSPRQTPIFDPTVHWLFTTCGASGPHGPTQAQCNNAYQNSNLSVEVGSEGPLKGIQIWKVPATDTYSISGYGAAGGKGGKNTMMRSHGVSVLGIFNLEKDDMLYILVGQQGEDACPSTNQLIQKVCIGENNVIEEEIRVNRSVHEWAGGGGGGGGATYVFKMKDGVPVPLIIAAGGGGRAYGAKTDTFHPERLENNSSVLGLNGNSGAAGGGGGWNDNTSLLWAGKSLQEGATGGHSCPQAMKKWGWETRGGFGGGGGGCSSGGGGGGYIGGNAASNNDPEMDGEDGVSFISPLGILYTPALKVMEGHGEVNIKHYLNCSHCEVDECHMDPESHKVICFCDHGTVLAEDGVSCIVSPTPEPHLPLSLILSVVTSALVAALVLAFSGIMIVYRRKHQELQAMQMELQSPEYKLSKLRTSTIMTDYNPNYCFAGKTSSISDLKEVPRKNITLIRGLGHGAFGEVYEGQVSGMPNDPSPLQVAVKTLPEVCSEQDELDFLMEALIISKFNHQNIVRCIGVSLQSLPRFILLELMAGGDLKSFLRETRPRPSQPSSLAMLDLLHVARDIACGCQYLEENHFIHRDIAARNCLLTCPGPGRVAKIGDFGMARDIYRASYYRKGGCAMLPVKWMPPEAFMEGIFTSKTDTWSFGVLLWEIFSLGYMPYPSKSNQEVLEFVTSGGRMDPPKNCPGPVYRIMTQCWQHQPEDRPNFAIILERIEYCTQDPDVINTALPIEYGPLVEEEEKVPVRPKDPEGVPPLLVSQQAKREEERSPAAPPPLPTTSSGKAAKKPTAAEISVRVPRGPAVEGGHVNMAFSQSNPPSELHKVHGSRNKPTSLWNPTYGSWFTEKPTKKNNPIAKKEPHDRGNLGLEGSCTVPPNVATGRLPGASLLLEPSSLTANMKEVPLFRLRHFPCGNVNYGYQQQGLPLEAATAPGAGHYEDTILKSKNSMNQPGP

B1: Full-length recombinant human MMP-9 (protein)
chain: APRQRQSTLVLFPGDLRTNLTDRQLAEEYLYRYGYTRVAEMRGESKSLGPALLLLQKQLSLPETGELDSATLKAMRTPRCGVPDLGRFQTFEGDLKWHHHNITYWIQNYSEDLPRAVIDDAFARAFALWSAVTPLTFTRVYSRDADIVIQFGVAEHGDGYPFDGKDGLLAHAFPPGPGIQGDAHFDDDELWSLGKGVVVPTRFGNADGAACHFPFIFEGRSYSACTTDGRSDGLPWCSTTANYDTDDRFGFCPSERLYTQDGNADGKPCQFPFIFQGQSYSACTTDGRSDGYRWCATTANYDRDKLFGFCPTRADSTVMGGNSAGELCVFPFTFLGKEYSTCTSEGRGDGRLWCATTSNFDSDKKWGFCPDQGYSLFLVAAHEFGHALGLDHSSVPEALMYPMYRFTEGPPLHKDDVNGIRHLYGPRPEPEPRPPTTTTPQPTAPPTVCPTGPPTVHPSERPTAGPTGPPSAGPTGPPTAGPSTATTVPLSPVDDACNVNIFDAIAEIGNQLYLFKDGKYWRFSEGRGSRPQGPFLIADKWPALPRKLDSVFEERLSKKLFFFSGRQVWVYTGASVLGPRRLDKLGLGADVAQVTGALRSGRGKMLLFSGRRLWRFDVKAQMVDPRSASEVDRMFPGVPLDTHDVFQYREKAYFCQDRFYWRVSSRSELNQVDQVGYVTYDILQCPED
in vitro cleavage assay (western blot of ALK) [1]: but not the ALK LF655del protein | in vitro cleavage assay (western blot of ALK) [2]: Treatment of purified WT ALK, but not the ALK LF655del protein, with recombinant human MMP-9 resulted in ALK cleavage
